Experimental findings from paper PMC7443692 are described below.

This test addresses SARS-CoV-2 Spike glycoprotein trimer immunogen (stabilized, soluble ectodomain) (SARS-CoV-2 | not stated) (UniProt P0DTC2). Description: negative stain electron microscopy.

“SARS-CoV-2 Spike glycoprotein trimer immunogen (stabilized, soluble ectodomain) (from UniProt P0DTC2 14-1208)” had a stoichiometry N of 3.

As usually defined, the stoichiometry N is the number of molecules, sites or subunits per partner or assembly.
